These are literature values, as cited in publication PMC3034196.

The data set deals with alkaline protease (Pseudomonas aeruginosa) (UniProt Q03023).
Sequence of UniProt Q03023 (Q03023 10-479): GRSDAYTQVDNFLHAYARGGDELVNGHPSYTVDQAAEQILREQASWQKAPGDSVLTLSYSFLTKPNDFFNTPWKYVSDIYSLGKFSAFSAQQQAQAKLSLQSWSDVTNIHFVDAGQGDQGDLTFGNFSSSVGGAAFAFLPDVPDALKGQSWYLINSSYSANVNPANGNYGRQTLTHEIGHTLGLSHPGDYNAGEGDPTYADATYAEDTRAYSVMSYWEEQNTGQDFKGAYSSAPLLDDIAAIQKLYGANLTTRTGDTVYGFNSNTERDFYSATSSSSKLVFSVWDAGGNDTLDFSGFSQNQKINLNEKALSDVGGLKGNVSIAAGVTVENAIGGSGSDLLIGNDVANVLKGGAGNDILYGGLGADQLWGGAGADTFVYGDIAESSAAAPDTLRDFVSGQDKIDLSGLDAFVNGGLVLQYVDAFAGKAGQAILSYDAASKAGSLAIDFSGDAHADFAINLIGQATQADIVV

For “APRin (alkaline protease inhibitor) (from UniProt Q03026)”, the Kd (usually the concentration at which binding is half-saturated) was 4 pM.
